Results on one substance are retold here after article PMC11699195.

A short description of the data set: immunoblot, H460, A549, HCC827 cells. The note with it: glycan gained; control: mock vector. Background: A western blot detects proteins with antibodies after separation by electrophoresis.

Take PD-L1: RPN1-HA overexpression: the expression_or_secretion entry is listed as “increases”.
